Results on 2 molecules are retold here after doi:10.1101/2025.02.07.637128 (bioRxiv, 2025).

Where “and” joins values, the source holds several entries; their conditions need not be identical. Equal values may be shown once.

Data set [1] addresses Concanavalin A. Kind of data set: resistive pulse sensing with PLY nanopores.
Data set [2] deals with the molecule itself.

Turning to Concanavalin A (natural protein), the stoichiometry N in data set [1] was 2 and 4.

B1: Pneumolysin (PLY) toxin (natural protein)
chain: MANKAVNDFILAMNYDKKKLLTHQGESIENRFIKEGNQLPDEFVVIERKKRSLSTNTSDISVTATNDSRLYPGALLVVDETLLENNPTLLAVDRAPMTYSIDLPGLASSDSFLQVEDPSNSSVRGAVNDLLAKWHQDYGQVNNVPARMQYEKITAHSMEQLKVKFGSDFEKTGNSLDIDFNSVHSGEKQIQIVNFKQIYYTVSVDAVKNPGDVFQDTVTVEDLKQRGISAERPLVYISSVAYGRQVYLKLETTSKSDEVEAAFEALIKGVKVAPQTEWKQILDNTEVKAVILGGDPSSGARVVTGKVDMVEDLIQEGSRFTADHPGLPISYTTSFLRDNVVATFQNSTDYVETKVTAYRNGDLLLDHSGAYVAQYYITWDELSYDHQGKEVLTPKAWDRNGQDLTAHFTTSIPLKGNVRNLSVKIRECTGLAWEWWRTVYEKTDLPLVRKRTISIWGTTLYPQVEDKVEND
B1: the “stoichiometry N” value in data set [2] is 35 ± 2 monomers.
